Reference: patent publication US20150158921A1

Key:
Test in all cases: cell-based or functional assay
[1] = target: rat α2β4 nAChR (rat), P12389
[2] = target: rat NMDA receptor NR1-2b/NR2D (rat), P35439
[3] = target: rat α2β2 nAChR (rat), P12389
[4] = target: rat α3β4 nAChR (rat), P04757
[5] = target: rat α4β4 nAChR (rat), P09483
[6] = target: rat α7 nAChR (rat), Q05941
[7] = target: rat NMDA receptor NR1-2b/NR2C (rat), P35439
[8] = target: human α6/α3β2β3 nAChR (human), P17787
[9] = target: human α7 nAChR (human), P36544
[10] = target: rat α6/α3β2β3 nAChR (rat), P12390
[11] = target: rat NMDA receptor NR1-2b/NR2A (rat), P35439
[12] = target: rat NMDA receptor NR1-2b/NR2B (rat), P35439
[13] = target: rat α4β2 nAChR (rat), P09483
[14] = target: rat α3β2 nAChR (rat), P04757
[15] = target: rat α6/α3β4 nAChR (rat), P12392
Sequence of rat α6/α3β4 nAChR (rat), P12392 (P12392 21-495): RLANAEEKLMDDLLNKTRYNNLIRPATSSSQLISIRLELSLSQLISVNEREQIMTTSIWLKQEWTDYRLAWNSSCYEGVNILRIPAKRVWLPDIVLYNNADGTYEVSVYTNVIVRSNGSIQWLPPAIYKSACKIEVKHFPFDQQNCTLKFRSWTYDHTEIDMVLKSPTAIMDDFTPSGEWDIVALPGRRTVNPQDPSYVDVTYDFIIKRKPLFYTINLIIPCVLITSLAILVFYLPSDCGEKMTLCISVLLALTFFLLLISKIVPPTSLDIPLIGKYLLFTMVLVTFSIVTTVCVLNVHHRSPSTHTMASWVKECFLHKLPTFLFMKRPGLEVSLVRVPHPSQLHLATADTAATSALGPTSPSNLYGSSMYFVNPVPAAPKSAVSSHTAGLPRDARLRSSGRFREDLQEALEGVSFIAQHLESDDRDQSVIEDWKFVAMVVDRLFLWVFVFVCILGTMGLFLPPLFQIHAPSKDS

Sequence of human α7 nAChR (human), P36544 (P36544 23-502): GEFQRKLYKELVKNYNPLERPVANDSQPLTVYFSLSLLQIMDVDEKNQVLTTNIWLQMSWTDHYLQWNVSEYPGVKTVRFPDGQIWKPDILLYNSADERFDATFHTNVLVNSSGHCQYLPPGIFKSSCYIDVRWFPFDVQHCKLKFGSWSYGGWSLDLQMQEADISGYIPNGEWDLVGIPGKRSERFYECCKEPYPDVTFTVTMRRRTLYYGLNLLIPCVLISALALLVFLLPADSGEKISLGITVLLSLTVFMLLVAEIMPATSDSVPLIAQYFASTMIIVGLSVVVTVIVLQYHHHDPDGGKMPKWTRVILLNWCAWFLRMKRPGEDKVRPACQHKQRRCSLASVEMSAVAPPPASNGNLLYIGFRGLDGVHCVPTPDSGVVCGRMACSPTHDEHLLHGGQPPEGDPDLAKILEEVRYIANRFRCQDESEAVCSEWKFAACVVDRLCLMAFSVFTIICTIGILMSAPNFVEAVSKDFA
Sequence of human α6/α3β2β3 nAChR (human), P17787 (P17787 26-502, chain 1 of 2): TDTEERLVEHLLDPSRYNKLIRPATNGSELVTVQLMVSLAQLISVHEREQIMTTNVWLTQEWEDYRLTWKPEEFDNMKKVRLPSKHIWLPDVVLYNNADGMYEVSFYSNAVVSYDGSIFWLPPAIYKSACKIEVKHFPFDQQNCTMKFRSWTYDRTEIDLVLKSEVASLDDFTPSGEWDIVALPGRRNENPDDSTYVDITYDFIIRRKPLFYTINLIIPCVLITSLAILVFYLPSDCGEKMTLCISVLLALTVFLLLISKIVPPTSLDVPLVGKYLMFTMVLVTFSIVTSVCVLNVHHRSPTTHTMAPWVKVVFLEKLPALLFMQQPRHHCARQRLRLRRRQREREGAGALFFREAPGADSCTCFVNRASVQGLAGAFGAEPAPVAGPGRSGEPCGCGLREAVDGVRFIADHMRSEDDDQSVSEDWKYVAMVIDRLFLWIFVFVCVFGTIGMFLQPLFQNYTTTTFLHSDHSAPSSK
Sequence of human α6/α3β2β3 nAChR (human), P17787 (Q05901 22-458, chain 2 of 2, further chain): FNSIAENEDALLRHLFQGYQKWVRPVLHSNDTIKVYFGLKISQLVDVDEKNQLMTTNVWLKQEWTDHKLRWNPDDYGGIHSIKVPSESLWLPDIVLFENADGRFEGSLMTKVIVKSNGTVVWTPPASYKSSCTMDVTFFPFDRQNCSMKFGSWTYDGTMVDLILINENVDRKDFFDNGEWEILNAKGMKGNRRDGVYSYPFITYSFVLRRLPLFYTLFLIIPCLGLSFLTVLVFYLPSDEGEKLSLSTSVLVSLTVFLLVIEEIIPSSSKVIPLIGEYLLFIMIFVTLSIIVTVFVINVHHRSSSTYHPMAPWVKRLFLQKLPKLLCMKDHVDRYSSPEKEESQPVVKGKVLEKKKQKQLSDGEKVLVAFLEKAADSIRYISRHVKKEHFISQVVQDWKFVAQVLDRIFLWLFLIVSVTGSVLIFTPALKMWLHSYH
Sequence of rat α2β2 nAChR (rat), P12389 (P12389 28-511, chain 1 of 2): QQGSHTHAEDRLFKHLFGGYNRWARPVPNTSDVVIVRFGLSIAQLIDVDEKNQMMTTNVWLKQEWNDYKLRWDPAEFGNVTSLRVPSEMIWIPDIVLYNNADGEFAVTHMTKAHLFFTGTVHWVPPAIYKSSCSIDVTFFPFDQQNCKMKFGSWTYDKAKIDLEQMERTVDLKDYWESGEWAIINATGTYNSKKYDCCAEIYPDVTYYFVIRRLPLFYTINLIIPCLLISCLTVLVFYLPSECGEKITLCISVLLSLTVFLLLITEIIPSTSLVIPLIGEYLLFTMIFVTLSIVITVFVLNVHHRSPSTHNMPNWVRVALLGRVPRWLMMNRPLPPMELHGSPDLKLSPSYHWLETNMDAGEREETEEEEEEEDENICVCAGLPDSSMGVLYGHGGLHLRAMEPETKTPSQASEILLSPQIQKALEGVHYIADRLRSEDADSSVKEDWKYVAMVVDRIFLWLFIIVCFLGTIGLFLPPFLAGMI
Sequence of rat α2β2 nAChR (rat), P12389 (P12390 25-500, chain 2 of 2, further chain): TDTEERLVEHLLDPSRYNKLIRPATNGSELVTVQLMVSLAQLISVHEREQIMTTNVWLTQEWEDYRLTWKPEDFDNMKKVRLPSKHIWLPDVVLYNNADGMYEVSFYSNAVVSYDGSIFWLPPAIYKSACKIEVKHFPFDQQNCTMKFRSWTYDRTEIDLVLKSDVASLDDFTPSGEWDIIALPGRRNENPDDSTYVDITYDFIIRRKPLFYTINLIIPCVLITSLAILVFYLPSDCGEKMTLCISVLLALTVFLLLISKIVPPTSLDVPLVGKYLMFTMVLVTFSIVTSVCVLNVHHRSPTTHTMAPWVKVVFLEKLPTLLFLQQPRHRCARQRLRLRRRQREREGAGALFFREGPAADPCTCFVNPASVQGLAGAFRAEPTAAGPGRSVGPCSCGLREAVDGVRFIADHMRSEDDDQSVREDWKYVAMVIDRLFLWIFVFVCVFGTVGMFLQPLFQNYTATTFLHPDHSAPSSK
Sequence of rat α2β4 nAChR (rat), P12389 (P12389 28-511, chain 1 of 2): as the sequence (P12389 28-511, chain 1 of 2) above
Sequence of rat α2β4 nAChR (rat), P12389 (P12392 21-495, chain 2 of 2, further chain): as the sequence (P12392 21-495) above
Sequence of rat α7 nAChR (rat), Q05941 (Q05941 23-502): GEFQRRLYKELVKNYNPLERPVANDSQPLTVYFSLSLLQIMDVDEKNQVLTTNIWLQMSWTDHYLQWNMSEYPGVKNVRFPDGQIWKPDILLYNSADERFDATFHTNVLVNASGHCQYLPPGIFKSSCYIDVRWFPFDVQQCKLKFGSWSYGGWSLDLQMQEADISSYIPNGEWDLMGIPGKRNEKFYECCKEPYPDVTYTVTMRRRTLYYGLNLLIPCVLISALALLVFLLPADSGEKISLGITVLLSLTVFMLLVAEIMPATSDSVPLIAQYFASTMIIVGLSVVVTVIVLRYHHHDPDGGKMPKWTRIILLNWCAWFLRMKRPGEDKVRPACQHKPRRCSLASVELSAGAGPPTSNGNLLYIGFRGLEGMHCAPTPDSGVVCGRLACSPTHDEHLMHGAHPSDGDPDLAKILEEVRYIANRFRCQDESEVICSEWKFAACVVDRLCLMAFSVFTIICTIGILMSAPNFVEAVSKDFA

In the case of TCRSSGRYCRSPYDRRRRYCRRITDACV (modifications not checked) [αO-conotoxin GeXIVA12 (GeXIVA mature peptide isomer with disulfide bonds I-II, III-IV)], the Half-blocking dose IC50, ACh-gated current, oocyte voltage clamp [1] is reported as 2090 nM, the Half-blocking dose IC50, NMDA receptor current, oocyte voltage clamp [2] is reported as 5200 nM and the Half-blocking dose IC50, ACh-gated current, oocyte voltage clamp [3] is reported as 338 nM. The Half-blocking dose IC50, ACh-gated current, oocyte voltage clamp [4] was 5400 nM, the Half-blocking dose IC50, ACh-gated current, oocyte voltage clamp [5] was 2390 nM and the Half-blocking dose IC50, ACh-gated current, oocyte voltage clamp [6] was 415 nM. The Half-blocking dose IC50, NMDA receptor current, oocyte voltage clamp [7] was 655 nM, the Half-blocking dose IC50, ACh-gated current, oocyte voltage clamp [8] was 505 nM and the Half-blocking dose IC50, ACh-gated current, oocyte voltage clamp [9] was 555 nM. It also gave a Half-blocking dose IC50, ACh-gated current, oocyte voltage clamp [10] of 258 nM, a Half-blocking dose IC50, NMDA receptor current, oocyte voltage clamp [11] of 3700 nM and a Half-blocking dose IC50, NMDA receptor current, oocyte voltage clamp [12] of 4000 nM. It also gave a Half-blocking dose IC50, ACh-gated current, oocyte voltage clamp [13] of 979 nM, a Half-blocking dose IC50, ACh-gated current, oocyte voltage clamp [14] of 412 nM and a Half-blocking dose IC50, ACh-gated current, oocyte voltage clamp [15] of 806 nM.
